One molecule from US7947648 (AEROVANCE, dated 2011) can be followed below.

A word on the koff: it is the rate constant with which the complex falls apart. A low value points to a long-lived complex. The term kon denotes the second-order rate constant of association. A high value points to fast association. As usually defined, the Kd is a measure of binding affinity in units of concentration.

Assay [1] deals with T1, IL-4 receptor alpha chain (UniProt P24394 26-232, limits assumed).
T1 sequence (looked up): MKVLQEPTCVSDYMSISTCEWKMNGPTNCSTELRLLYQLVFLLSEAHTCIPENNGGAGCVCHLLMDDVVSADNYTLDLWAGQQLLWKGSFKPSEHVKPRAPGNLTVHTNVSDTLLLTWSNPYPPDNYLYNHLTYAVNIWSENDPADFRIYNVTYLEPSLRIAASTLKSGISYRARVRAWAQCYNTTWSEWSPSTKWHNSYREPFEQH
Put plainly: cell-based or functional assay.

Assay [2] deals with T1, IL-4 receptor alpha chain. The assay is described as follows: Biacore (SPR), IL-4 receptor α chain immobilized. For orientation: SPR reads the build-up and loss of mass on a sensor chip optically.
For assay [3], the target named is T1, IL-4 receptor alpha chain. The assay is described as follows: Biacore (SPR), IL-4 receptor α chain immobilized; n = 7.
Assay [4] has as its target T1, IL-4 receptor alpha chain. Put plainly: Biacore assay, pre- and post-nebulized IL-4RA samples (Aeroneb Pro); no difference between them.

B1: IL-4RA (mutant human IL-4 protein with the R121D/Y124D pair of substitutions) (ligand)
chain: MHKCDITLQEIIKTLNSLTEQKTLCTELTVTDIFAASKNTTEKETFCRAATVLRQFYSHHEKDTRCLGATAQQFHRHKQLIRFLKRLDRNLWGLAGLNSCPVKEANQSTLENFLERLKTIMDEKDSKCSS
notes: The entry may carry an N-terminal methionine; also called mhIL-4; IL-4 mutein
Turning to B1, in assay [1], the “EC50, inhibition of IL-4-induced cell proliferation (TF-1/IL-4 proliferation assay), pre and post nebulization (Aeroneb Pro)” value is 0.2 to 0.3 nM; the “IC50, TF-1 proliferation assay, post nebulization (Pari LC Plus)” value was 0.483 nM; the “IC50, TF-1 proliferation assay, pre nebulization (Pari LC Plus)” value came out at 0.459 nM. In assay [2], this molecule yielded an off-rate (koff) of 0.0017 s⁻¹ and an on-rate (kon) of 1.6e+07 M⁻¹ s⁻¹. The Kd in assay [3] is 0.14 nM. This molecule also came in with a Kd in assay [4] of roughly 0.1 nM.
